# Publication doi:10.1101/2022.08.08.503151
# B1: Stm1 (suppressor of target of Myb protein 1) (natural protein)
# chain: MSNPFDLLGNDVEDADVVVLPPKEIVKSNTSSKKADVPPPSADPSKARKNRPRPSGNEGAIRDKTAGRRNNRSKDVTDSATTKKSNTRRATDRHSRTGKTDTKKKVNQGWGDDKKELSAEKEAQADAAAEIAEDAAEAEDAGKPKTAQLSLQDYLNQQANNQFNKVPEAKKVELDAERIETAEKEAYVPATKVKNVKSKQLKTKEYLEFDATFVESNTRKNFGDRNNNSRNNFNNRRGGRGARKGNNTANATNSANTVQKNRNIDVSNLPSLA
# Target: 80S ribosome (yeast) (S. cerevisiae (endogenous in TB50a)) (UniProt P14126)
# Assay: co-sedimentation
# Chain of UniProt P14126 (P14126 whole entry, looked up): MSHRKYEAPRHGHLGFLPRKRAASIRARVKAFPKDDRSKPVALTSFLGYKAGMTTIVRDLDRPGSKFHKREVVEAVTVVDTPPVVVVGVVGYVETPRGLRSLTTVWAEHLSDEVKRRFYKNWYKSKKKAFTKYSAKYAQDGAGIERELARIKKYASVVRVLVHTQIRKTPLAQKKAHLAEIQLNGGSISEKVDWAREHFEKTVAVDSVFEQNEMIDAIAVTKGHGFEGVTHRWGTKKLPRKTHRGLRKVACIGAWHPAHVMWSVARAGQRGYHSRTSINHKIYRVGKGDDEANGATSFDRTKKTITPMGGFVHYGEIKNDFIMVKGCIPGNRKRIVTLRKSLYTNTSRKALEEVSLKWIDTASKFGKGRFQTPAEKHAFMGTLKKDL
binder,measurement,value
B1,"fold accumulation in the 80S fraction, without CHX against CHX-treated",3 fold
